Data on seven molecules can be found in publication PMC8551123, “Pentose degradation in archaea: Halorhabdus species degrade D-xylose, L-arabinose and D-ribose via bacterial-type pathways” (Extremophiles, 2020).

The target in data set [1] is Ribokinase of Halorhabdus tiamatea (HTIA_0439) (Halorhabdus tiamatea). In words: SEC; Superdex 200 HiLoad column (1.6 by 60 cm), flow rate 1 ml/min, calibrated with the HMW and LMW kits; oligomeric state from the native mass and the calculated subunit mass.
In data set [2] the target is Ribose-5-phosphate isomerase of Halorhabdus utahensis (Huta_0832) (Halorhabdus utahensis). Described as above.
Data set [3] deals with the molecule itself. The description is as above.
Substrate in data set [4]: O=C(CO)[C@@H](O)[C@H](O)CO
The data set is described as follows: coupled pyruvate kinase/lactate dehydrogenase assay (NADH). The data set is classed as biochemical, Halorhabdus utahensis. The note with it: ATP co-substrate (12.5 mM standard), 37 °C, pH 8.0, 2 M KCl, 10 mM MgCl2.

Substrate in data set [5]: Nc1ncnc2c1ncn2[C@@H]1O[C@H](COP(=O)(O)OP(=O)(O)OP(=O)(O)O)[C@@H](O)[C@H]1O
The data set is described as above. The data set is classed as biochemical, Halorhabdus utahensis. The note with it: 37 °C.

Substrate in data set [6]: O=C(CO)[C@@H](O)[C@@H](O)CO
The description is as above. The note with it: ATP co-substrate (10 mM standard), 37 °C, pH 8.0, 1.5 M KCl, 50 mM MgCl2. The data set is classed as biochemical, Halorhabdus utahensis.

Substrate in data set [7]: Nc1ncnc2c1ncn2[C@@H]1O[C@H](COP(=O)(O)OP(=O)(O)OP(=O)(O)O)[C@@H](O)[C@H]1O
The data set is described as above. The data set is classed as biochemical, Halorhabdus tiamatea. The note with it: D-ribose co-substrate (5 mM standard), 42 °C, pH 7.5 bis-tris, 1.5 M KCl, 10 mM MgCl2.

One may read the stoichiometry N as the number of molecules, sites or subunits per partner or assembly. As a reminder, the Km is the substrate concentration at which the rate is half of its maximum.

In the case of “Ribokinase of Halorhabdus tiamatea (HTIA_0439) (enzyme)”, in data set [1], the stoichiometry N is 2. “Ribose-5-phosphate isomerase of Halorhabdus utahensis (Huta_0832) (enzyme)”: the stoichiometry N in data set [2] is 4.

B1: Xylulokinase of Halorhabdus utahensis (Huta_2446) (enzyme, UniProt C7NMH3 1-515, looked up)
chain: MGLDLGTSGVKTLVADADGEVLATNTEEYPLYQPEVGWSEQDPADWWAATLDGIEAVLEDPAVDPEDVEALGLTGQMHGSVFLDGEGEVLRPAILWNDTRTSAQCDEIEERVGEDRIIELASNPPFEGFTAPKILWVQEHEPEVYDQTESILLPKDFIRYKLTEAFATDVSDASGTLLLDVGERDWSPEILDELDISRDLLPEVYESPEVTGAVTDAVAERTGLPAGTPVVAGAGDNAAGAVGSGVVGDGDVWGSIGTSGVIFVATDDERTDPEGRVHTFCHAVPDTWHVMGVMLSAGGAFSWFSETLGGPEEVVADQLGKDAFEVLTDEAATVDPGSEGLIFLPYLNGERTPHRDADARGAFFGLSTRHDKSHVVRSVLEGVTYGLRDSFRIVRDDLGVDTGQLKAAGGGAKSPLWKQIQADIFDAEILTPNVDEGPAYGSALLAGVGADVYDNVADATEQAVDIVDSVEPIDQHTRVYDEYYEIYESLYPALEDSFAANSAAIESAQDILDEA
notes: xylulokinase, Halorhabdus utahensis, gene Huta_2446 (1548 nucleotides); calculated subunit mass 55.1 kDa; Gene amplified from genomic DNA and cloned into pTA963; source: Haloferax volcanii H1209, purified (Ni-NTA, size-exclusion chromatography, Phenyl-Sepharose)
Take B1: the “stoichiometry N” value in data set [3] is 2. For the same molecule, the Km is 310 µM in data set [4] and 5680 µM in data set [5] (D-xylulose co-substrate (10 mM standard), pH 8.0, 2 M KCl, 10 mM MgCl2).

B2: Ribulokinase of Halorhabdus utahensis (Huta_1150) (enzyme, UniProt C7NMB8 1-512, looked up)
chain: MDGQYLVGTDIGTNSTKTILVSPEGEVLGTGNAGYEVEQPEPSWAQQWPDVWVEATYDSIQQAIDEAEVDPSEIRGISISSLYGGAGVPLDSEGEPVYPCLIWMDRRATDQVEWVKENVDLDRLFEITGNYVDSYYGYTKIRWIKEHEPEVWDDIENFVPPNNYVEYVMTDELAVDYSSAGNVGGVFDIHDLAWSEEACEMLEIPIEKFPERLVPTEEIVGEVTADAAEASGLPEGTPVLAGGVDAPMATLAAGAFEEGDNVSMMGTSTCWGTIHEGAGLDQQLVSMPHVAEGEEKIYTWGGSATTGGLIEWFKDEFGGPEEQAGELVDVDPFELLNMKAEEIPAGSEGLVALPYFKGERSPIWDPDARGMFTGLSLYHGKSHMYRALMEAGGYSLRHNVEVAEEIGIPLNDETSVVGGVSNSELWMQILADVTGRRMEVPAGGVGAPLGDALVVGVGTGLFEDYDVATEWTETGEVYTPEPENVDTYDEYYDIYKRLYQNTKDEMHDLAQL
notes: ribulokinase, Halorhabdus utahensis, gene Huta_1150 (1539 nucleotides); calculated subunit mass 56.1 kDa; Gene amplified from genomic DNA and cloned into pTA963; also called L-ribulokinase; source: Haloferax volcanii H1209, purified (Ni-NTA, size-exclusion chromatography)
As for B2, the “stoichiometry N” value in data set [3] is 6. The Km in data set [6] stood at 550 µM; in data set [5] (L-ribulose co-substrate (1 mM standard), pH 8.0, 1.5 M KCl, 50 mM MgCl2), 4200 µM.

B3: Arabinose isomerase of Halorhabdus utahensis (Huta_1154) (enzyme, UniProt C7NML7 1-495, looked up)
chain: MSPIPHGTDFDDLEVWFLTGSQHLYGEETLDLVAEDAREVAAGLDDDDRIPVSVEFKSVLTTADAIESVVREANASEDCIGLITWMHTFSPAKMWIRGLQALDVPFVHLHTQFNRELPYDEIDMDFMNANQSAHGGREFGHIVSRLDIDRKVVVGHWEDDDVREQLDTWARAAAARHELRGAKIARFGDNMRDVAVTEGDKVSAQMAFGASVDGYGLGDLVEFVEDVTESEIDDLLEEYDQQYELAAELQADGDRRDSLREAARIELGIRAFLEDGEFVGFTTTFENLTGLSQLPGLAVQRLMADGYGFGPEGDWKSALLTRAMKVMGQGLNGGTSLMEHYTYDLTEGDEKVLGAHMLEICESIAGEQPRLEIHPLDIGGKADPVRAVFDADTGPAINASLVDMGDRFRLITNDVESVGPDEPLPELPVARAVWKPEPDFETAIEAWIKAGGAHHTGYSQAVTNEHLEDFASMTGIEHLHVGADTDIADVERKLS
notes: arabinose isomerase, Halorhabdus utahensis, gene Huta_1154 (1488 nucleotides); calculated subunit mass 55.4 kDa; Gene amplified from genomic DNA and cloned into pTA963; source: Haloferax volcanii H1209, purified (Ni-NTA, size-exclusion chromatography)
On to B3, for which the “stoichiometry N” value in data set [3] was 6.

B4: ribokinase (HTIA_0439) (Halorhabdus tiamatea SARL4B) (protein)
chain: MGNVYVAGSINQDIAVRLERRPQPGETVPGESASFGLGGKGANQAIAAARSGAAVELIGAVGDDRFGEELLADLDTEDGLSTAGVHRASNTSTGVALITVDADSENAIVAVPGANAALAPADVGDVGMEDDAVVLSQFEIPQPTIRTFFEQAHAQGARTVLNPAPAETVREDLLERVDFLVVNETEALFYADGDSKGQLSQDELVETAAALRTHDEQVVVVTLGEAGVFASTPSETIELDAYAVDPVDTTGAGDAFVGAFATALGDGLRLRDALDVGAAAGALATTQTGAAPSLPTRAAIEDLRADE
notes: full length, overexpressed, recombinant (Haloferax volcanii H1209, pTA963, His tag by general methods)
For B4, the Km in data set [7] was determined as 100 µM.

B5: Xylose isomerase of Halorhabdus utahensis (Huta_2443) (enzyme, UniProt C7NMH0 1-438, looked up)
chain: MSEYFPEIDEITYEGPDSQDPLSFSYYDPEKQVGEKTMAEHLRFSVAYWHTLREDGSDPFGAGTMQRPWDDIDDPMEKAHARVDAAFEFFEKLGVPYFCFHDRDIAPKGEDLAESNENLDEIVDHVEEKIDETGVELLWGTAQLFMEPKFAHGAATSPNPDVFAHAAGQVKKAMEVTERLGGENFVFWGGREGYKTLLNSDMGRELDNMGRFFRMAADYADDIGFDGQLLIEPKPKEPTKHQYDFDAANVMAFLREYGLEDRFNLNLEANHATLAGHTFRHELQYARVNDALGSVDANQGDKLIGWDTDEFPTDVYMTTLAMYEVLENDGIAPGGLNFDAKVRRESFEPVDLFYGHVVGMDTFARGLEVAHELREDGVFADVIDDRYGYDAGIGAEIAAESTDFEALAEYALENDGIELESGRQEKLKAVLNSYILES
notes: xylose isomerase, Halorhabdus utahensis, gene Huta_2443 (1317 nucleotides); calculated subunit mass 49.3 kDa; Gene amplified from genomic DNA and cloned into pTA963; Elution from Ni-NTA implies a His tag; also called class II xylose isomerase; source: Haloferax volcanii H1209, purified (Ni-NTA, size-exclusion chromatography)
Turning to B5, in data set [3], the “stoichiometry N” value is 4.
